According to the supplement of paper PMC10567573:

B1: SAT2 (parent)
chain: LTEAEGWHFFCFQGEATRKLAGK
B2: DVL3 (parent)
chain: HPDPAPFCADNPSELPPPMERTGG

Variants of: B1
Assay: protein stability index of a GFP-peptide fusion (GPS, HEK-293T) (PSI 1-6); higher = more stable
Details: c terminus: native
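Note: lentivirally expressed fusions sorted by FACS into six bins by GFP to DsRed ratio, PSI derived from sequencing read proportions per bin multiplied by bin number.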

Protein stability index of substitutions, site by site:
F12: I 2.55; Q 4.04; H 3.95; P 3.85; S 3.73; E 3.33; T 3.88; A 3.56; Y 2.48; N 3.84; M 2.5
K19: E 2.68; P 2.1; M 1.89; N 2.93; D 2.76; C 2.41; R 2.23; W 2
G14: P 1.83; L 1.73; E 2.83; N 2.76; C 1.19; T 2.1; V 2.33; D 3.17
W7: T 4.08; G 3.63; V 3.42; Y 2.58; H 3.96; Q 4.29; F 2.22; E 4.9; R 3.72; D 4.63
T2: W 1.11; G 1.76; A 1.38; N 2.75; S 2.34; R 2.14; F 1.8; K 2.14; I 3.08; Q 2.48; E 3.48; D 2.97; Y 1.56
K23: V 1.49; L 1.86; M 1.01; R 1.51; C 2.15; D 2.06
A16: F 1.59; P 2.33; Y 2.03; C 2.46; Q 2.58; I 1.64; H 2.63; V 2.3; S 2.12; D 3.16
C11: H 2.99; Y 2.12; D 3.45; R 2.33; S 3.68; L 2.42; Q 3.46; V 2.37; A 2.09
L20: M 2.91; A 2.36; F 1.97; S 2.94; H 2.64; G 3.47; Q 3.29; V 1.98
E5: A 2.17; Q 2.16; V 1.36; N 1.73; F 1.79; S 2.17; M 4.97; H 1.85; Y 1.97; W 2.44
R18: G 2.07; A 2.09; K 2.8; D 3.15; Q 1.87; P 2.58
E3: K 1.25; P 1.74; R 1.43; M 2.56; D 2.49; F 1.64; Y 2.18; N 1.48; G 1.78; W 1.37; I 3.97; L 1.58
F9: K 4.13; S 3.56; E 4.43; C 3.12; A 3.78; L 1.85; G 3.69; H 3.48
A4: K 2.61; D 2.37; L 2.14; C 1.45; Q 2.36; W 2.27; F 1.31; P 3.18
G6: D 3.48; F 1.79; M 2.05; N 2.56; H 2.14; P 2.78; A 1.58; E 3.1
G22: K 2.7; C 1.07; I 1.91; A 1.5; H 2.48; L 1.81; Q 3.22
A21: S 2.16; E 2.25; T 2.71; M 1.91; N 2.55; P 1.99; L 1.33; Y 2; Q 3.17
H8: C 1.78; V 1.91; F 1.9; D 3.44; K 3.24; I 2.19; Q 2.15; R 1.54; G 3.25
Q13: C 1.48; V 1.9; D 3.14; Y 2.66; A 2.14; K 2.63; L 1.67
E15: N 1.86; C 2.15; L 3.25; G 2.09; A 1.59; Y 2.69; T 2.72; F 1.57; S 1.74
T17: Y 2.01; E 2.7; G 2.15; R 2.26; Q 2.63
F10: G 4.09; W 1.94; S 4.25; M 3.39; I 2.42; N 3.94; D 4.69; V 2.34; C 2.56; E 4.18; Y 1.92; H 3.46; A 3.48
L1: D 3.43; K 2.81; H 1.48; N 3.57; M 2.34; A 2.58; V 2.22; C 2.48

Variants of: B2
Assay: as above
Details: c terminus: a fixed tail appended

Protein stability index: each site, then its substitutions
C8: R 2.62; V 2.84; G 4.65; W 2.74; E 5.49
P12: Q 2.86; W 2.17; V 2.3; R 2.95; N 2.42; E 3.19; K 2.88; L 3.24; M 3.54
P18: Y 2.61; R 2.8; N 3.2; A 2.48; M 2.68; V 3.15; L 2.95; H 2.69; I 2.82; F 2.7; E 3.32; G 2.79; D 3.27; W 2.35; K 2.53; T 3.12; S 3.05; C 2.94; Q 3.42
G23: W 2.07; R 2.89; V 2.47; M 2.62
F7: W 2.21; R 5.23
P4: V 5.14; W 5.19; Y 4.58; N 5.35; R 4.78; S 5.24; T 4.9; Q 5.3; M 5.22
E14: G 2.65
E20: G 1.73
A5: S 2.54; C 2.75; V 3.62; R 2.29; E 3.91; F 2.58; W 2.41; I 2.77; K 2.7; M 1.82; G 2.87; L 2.77; Q 3.42; Y 3.11; N 3.93; D 3.82
N11: L 2.59
G24: S 3.1
P17: Y 2.86; I 2.63; S 2.92; G 2.6; E 3.41; D 2.93; N 2.65; M 2.54; A 2.73; V 2.82; L 2.76; R 2.62; H 2.61; K 2.92; W 2.54; C 2.52; F 2.4; Q 3.02
A9: G 3.27
P16: W 2.17; R 2.28; A 3.04; K 2.19; S 3.19; Q 3.59; E 3.09; D 2.9; G 3.1; L 2.42; I 2.7; M 3.02; C 2.38; H 2.58; V 2.9
T22: A 3.02; D 3.31; M 2.96; K 2.85; L 2.94; V 2.02; E 2.88; R 2.58; W 2.22; Q 2.78; G 2.5
P6: E 4.91; F 2.48; I 3; L 2.83; R 2.91; N 4.83; S 3.14; Y 2.46; A 2.69; M 2.83; T 3.92; D 5.21; C 3.01; W 3.3; H 3.46; K 3.33; V 2.73; Q 4.12; G 3.57
